Changes are numbered by the printed parent chain.
B1: 1.12.17-1 (antibody, human IgG1, kappa, V domains shown)
VH: QVQLLQSGAAVTKPGASVRVSCEASGYNIRDYFIHWVRQAPGQGLQWVGWINPKTGQPNNPRQFQGRVSLTRHASWDFDTFSFYMDLKALRSDDTAVYFCARQRSDYWDFDVWGSGTQVTVSS
VL: DIQMTQSPSSLSASVGDTVTITCQANGYLNWYQQRRGKAPKLLIYDGSKLERGVPSRFSGRRWGQEYNLTINNLQPEDIATYFCQVYEFFGPGTRLDLKR
B2: 1.13.17-1 (antibody, human IgG1, kappa, V domains shown)
VH: B1 VH with I34M
VL: B1 VL
B3: 1.14.17-1 (antibody, human IgG1, kappa, V domains shown)
VH: B1 VH with I34M, F83A
VL: B1 VL
B4: 1.30.1-1 (antibody, human IgG1, kappa)
heavy: QVQLLQSGAAVTKPGASVRVSCEASGYNIRDYFIHWWRQAPGQGLQWVGWINPKTGQPNNPRQFQGRVSLTRHASWDFDTFSFYMDLKALRSDDTAVYFCARQRSDYWDFDVWGSGTMVTVSSASTKGPSVFPLAPSSKSTSGGTAALGCLVKDYFPEPVTVSWNSGALTSGVHTFPAVLQSSGLYSLSSVVTVPSSSLGTQTYICNVNHKPSNTKVDKKVEPKSCDKTHTCPPCPAPELLAGPDVFLFPPKPKDTLMISRTPEVTCVVVDVSHEDPEVKFNWYVDGVEVHNAKTKPREEQYNSTYRVVSVLTVLHQDWLNGKEYKCKVSNKALPLPEEKTISKAKGQPREPQVYTLPPSREEMTKNQVSLTCLVKGFYPSDIAVEWESNGQPENNYKTTPPVLDSDGSFFLYSKLTVDKSRWQQGNVFSCSVLHEALHSHYTQKSLSLSPGK
light: DIQMTQSPSSLSASVGDTVTITCQANGYLNWYQQRRGKAPKLLIYDGSKLERGVPSRFSGRRWGQEYNLTINNLQPEDIATYFCQVYEFVVPGTRLDLKRTVAAPSVFIFPPSDEQLKSGTASVVCLLNNFYPREAKVQWKVDNALQSGNSQESVTEQDSKDSTYSLSSTLTLSKADYEKHKVYACEVTHQGLSSPVTKSFNRGEC
B5: 1.1.27-1 (antibody, human IgG1, kappa)
heavy: B4 heavy with M118Q
light: B4 light with L96V, L98I
B6: 1.1.15-1 (antibody, human IgG1, kappa)
heavy: B4 heavy with M118Q
light: B4 light with V90F
B7: 1.1.19-1 (antibody, human IgG1, kappa)
heavy: B4 heavy with M118Q
light: B4 light with V91T
B8: 1.1.9-1 (antibody, human IgG1, kappa)
heavy: B4 heavy with M118Q
light: B4 light with R52T
B9: 1.1.21-1 (antibody, human IgG1, kappa)
heavy: B4 heavy with M118Q
light: B4 light with V91G, R95N
B10: 1.1.3-1 (antibody, human IgG1, kappa)
heavy: B4 heavy with M118Q
light: B4 light with D1E
B11: 1.1.28-1 (antibody, human IgG1, kappa)
heavy: B4 heavy with M118Q
light: B4 light with R95N, L96V, L98I
B12: 1.1.12-1 (antibody, human IgG1, kappa)
heavy: B4 heavy with M118Q
light: B4 light with N72S, N73S
B13: 1.1.30-1 (antibody, human IgG1, kappa)
heavy: B4 heavy with M118Q
light: B4 light with V91T, R95N, L96V, L98I
B14: 1.1.29-1 (antibody, human IgG1, kappa)
heavy: B4 heavy with M118Q
light: B4 light with V91G, R95N, L96V, L98I
B15: 1.1.23-1 (antibody, human IgG1, kappa)
heavy: B4 heavy with M118Q
light: B4 light with V91T, R95N
B16: 1.1.25-1 (antibody, human IgG1, kappa)
heavy: B4 heavy with M118Q
light: B4 light with R95N, L96V
B17: 1.1.26-1 (antibody, human IgG1, kappa)
heavy: B4 heavy with M118Q
light: B4 light with L98I
B18: 1.13.15-1 (antibody, human IgG1, kappa)
heavy: B4 heavy with I34M, W37V, M118Q
light: B4 light with V90F
B19: 1.1.8-1 (antibody, human IgG1, kappa)
heavy: B4 heavy with M118Q
light: B4 light with G47A, K49N
B20: 1.1.6-1 (antibody, human IgG1, kappa)
heavy: B4 heavy with M118Q
light: B4 light with G47A
B21: 1.1.5-1 (antibody, human IgG1, kappa)
heavy: B4 heavy with M118Q
light: B4 light with R35K, R36P
B22: 1.1.4-1 (antibody, human IgG1, kappa)
heavy: B4 heavy with M118Q
light: B4 light with T18R
B23: 1.12.15-1 (antibody, human IgG1, kappa)
heavy: B4 heavy with W37V, M118Q
light: B4 light with V90F
B24: 1.1.17-1 (antibody, human IgG1, kappa)
heavy: B4 heavy with M118Q
light: B4 light with V90F, V91G
B25: 1.1.20-1 (antibody, human IgG1, kappa)
heavy: B4 heavy with M118Q
light: B4 light with R95N
B26: 1.1.18-1 (antibody, human IgG1, kappa)
heavy: B4 heavy with M118Q
light: B4 light with V91S
B27: 1.1.11-1 (antibody, human IgG1, kappa)
heavy: B4 heavy with M118Q
light: B4 light with R61S, N68T
B28: 1.1.16-1 (antibody, human IgG1, kappa)
heavy: B4 heavy with M118Q
light: B4 light with V91G
B29: 1.1.24-1 (antibody, human IgG1, kappa)
heavy: B4 heavy with M118Q
light: B4 light with L96V
B30: 1.1.13-1 (antibody, human IgG1, kappa)
heavy: B4 heavy with M118Q
light: B4 light with R61S, N68T, N72S, N73S
B31: 1.1.2-1 (antibody, human IgG1)
heavy: B4 heavy with M118Q
VL: DIQMTQSPSSLSASVGDTVTITCQANGYLNWYQQKPGKAPKLLIYDGSKLERGVPSRFSGRRWGQEYNLTINNLQPEDIATYFCQVYEFVVPGTKVDIK
B32: 1.1.7-1 (antibody, human IgG1, kappa)
heavy: B4 heavy with M118Q
light: B4 light with K49N
B33: 1.1.10-1 (antibody, human IgG1, kappa)
heavy: B4 heavy with M118Q
light: B4 light with N68T
B34: 1.1.22-1 (antibody, human IgG1, kappa)
heavy: B4 heavy with M118Q
light: B4 light with V91S, R95N

Target: HIV gp120 Bal (HIV)
Test: single-point ELISA; note: test concentration or dose not given here

Row | Binder | ELISA (A450)
1 | B1 | 0.9
2 | B2 | 1.02
3 | B3 | 0.89
4 | B4 | 0.81
5 | B5 | 0.97
6 | B6 | 0.93
7 | B7 | 1.03
8 | B8 | 0.98
9 | B9 | 0.98
10 | B10 | 0.97
11 | B11 | 0.98
12 | B12 | 1.05
13 | B13 | 0.9
14 | B14 | 0.91
15 | B15 | 0.9
16 | B16 | 0.9
17 | B17 | 0.96

Row | Binder | ELISA (A450)
18 | B18 | 0.7
19 | B19 | 1.01
20 | B20 | 0.91
21 | B21 | 0.9
22 | B22 | 0.96
23 | B23 | 0.69
24 | B24 | 1.02
25 | B25 | 0.94
26 | B26 | 0.92
27 | B27 | 0.92
28 | B28 | 1.06
29 | B29 | 0.88
30 | B30 | 0.94
31 | B31 | 0.95
32 | B32 | 0.95
33 | B33 | 0.94
34 | B34 | 0.88

Target: HIV gp120 CAAN (HIV)
Test: single-point ELISA; note: test concentration or dose not given here

Row | Binder | ELISA (A450)
35 | B1 | 0.84
36 | B2 | 0.78
37 | B3 | 0.43
38 | B4 | 1.05
39 | B5 | 0.99
40 | B6 | 0.79
41 | B7 | 1.05
42 | B8 | 0.93
43 | B9 | 0.99
44 | B10 | 1
45 | B11 | 0.93
46 | B12 | 1.02
47 | B13 | 0.86
48 | B14 | 1.01
49 | B15 | 0.95
50 | B16 | 0.92
51 | B17 | 1.07

Row | Binder | ELISA (A450)
52 | B18 | 0.6
53 | B19 | 0.5
54 | B20 | 0.46
55 | B21 | 0.9
56 | B22 | 1.09
57 | B23 | 0.63
58 | B24 | 0.9
59 | B25 | 0.95
60 | B26 | 0.92
61 | B27 | 1.03
62 | B28 | 0.99
63 | B29 | 0.98
64 | B30 | 1.11
65 | B31 | 0.93
66 | B32 | 1
67 | B33 | 1.1
68 | B34 | 1.02
